Experimental data published in PMC6519459 (Science (New York, N.Y.), 2018).

Target: Rpn11 (deubiquitinase of the lid, 3XFLAG-tagged, in the 26S holoenzyme) (S. cerevisiae, UniProt P43588 1-306)
Test: cryo-EM structure

binding result: binds
B1: ubiquitin (S. cerevisiae), the proximal, substrate-attached moiety of the polyubiquitin chain (natural protein)
chain: not shown
modifications: C terminus joined to the substrate lysine by an isopeptide bond; part of a K63-linked chain
